Molecular target: HAdV-C5 hexon protein (human adenovirus C5) (UniProt P04133)
UniProt P04133, sequence (P04133 whole entry): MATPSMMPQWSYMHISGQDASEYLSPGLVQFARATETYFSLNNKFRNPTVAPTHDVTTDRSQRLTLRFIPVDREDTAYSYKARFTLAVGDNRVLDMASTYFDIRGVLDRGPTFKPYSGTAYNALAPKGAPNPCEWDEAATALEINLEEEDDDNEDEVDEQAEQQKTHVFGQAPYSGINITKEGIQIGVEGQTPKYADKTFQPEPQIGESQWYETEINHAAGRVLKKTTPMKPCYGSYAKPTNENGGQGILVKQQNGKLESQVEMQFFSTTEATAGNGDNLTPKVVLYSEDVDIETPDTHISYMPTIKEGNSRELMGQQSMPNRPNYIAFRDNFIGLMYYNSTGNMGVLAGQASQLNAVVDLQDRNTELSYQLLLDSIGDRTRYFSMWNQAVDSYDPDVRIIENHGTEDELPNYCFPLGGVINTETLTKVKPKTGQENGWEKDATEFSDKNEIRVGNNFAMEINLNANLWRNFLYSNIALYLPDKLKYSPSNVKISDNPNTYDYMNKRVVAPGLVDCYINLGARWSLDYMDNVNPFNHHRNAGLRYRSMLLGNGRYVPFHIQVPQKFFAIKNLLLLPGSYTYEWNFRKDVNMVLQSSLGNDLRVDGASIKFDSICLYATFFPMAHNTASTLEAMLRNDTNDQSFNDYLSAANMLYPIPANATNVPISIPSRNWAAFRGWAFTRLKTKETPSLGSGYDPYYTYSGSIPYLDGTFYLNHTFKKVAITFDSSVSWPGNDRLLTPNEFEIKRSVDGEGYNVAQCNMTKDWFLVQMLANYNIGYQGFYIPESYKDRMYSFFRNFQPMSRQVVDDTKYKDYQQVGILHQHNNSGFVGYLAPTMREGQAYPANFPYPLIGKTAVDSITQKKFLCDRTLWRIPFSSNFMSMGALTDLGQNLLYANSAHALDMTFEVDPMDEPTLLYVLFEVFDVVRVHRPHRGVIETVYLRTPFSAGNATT

In the case of Human lactoferricin 1-49 (peptide), the qPCR of cell-bound HAdV-C5 genomes on myoblasts (5000 vp/cell, 2 µM Lfcin, on ice 30 min), with versus without Lfcin is reported as 20 fold.

Source: article PMC12361444
